Assay [1] concerns the target T1, human GLP-1 receptor (human, UniProt P43220 24-463).
T1 construct: whole, on cells; the potency assay used whole cells (clone FCW467-12A/KZ10-1)
Kind of assay: displacement of 125I-GLP-1(7-36)NH2, membranes with human GLP-1R, SPA. As for the experimental part:
The receptor binding of each compound to the human GLP-1 receptor was measured in a displacement binding assay. […] Each derivative was added in a series of concentrations to isolated membranes containing the human GLP-1 receptor and displacement of the labelled ligand was monitored. The receptor binding was reported as the concentration at which half of the labelled ligand was displaced from the receptor, the IC₅₀ value.
A general note: In a radioligand displacement assay an active substance lowers the binding of a labelled ligand.

The target of assay [2] is T2, human glucagon receptor (human, UniProt P47871 26-477). Put plainly: cell-based or functional assay.
T2 sequence (P47871 26-477): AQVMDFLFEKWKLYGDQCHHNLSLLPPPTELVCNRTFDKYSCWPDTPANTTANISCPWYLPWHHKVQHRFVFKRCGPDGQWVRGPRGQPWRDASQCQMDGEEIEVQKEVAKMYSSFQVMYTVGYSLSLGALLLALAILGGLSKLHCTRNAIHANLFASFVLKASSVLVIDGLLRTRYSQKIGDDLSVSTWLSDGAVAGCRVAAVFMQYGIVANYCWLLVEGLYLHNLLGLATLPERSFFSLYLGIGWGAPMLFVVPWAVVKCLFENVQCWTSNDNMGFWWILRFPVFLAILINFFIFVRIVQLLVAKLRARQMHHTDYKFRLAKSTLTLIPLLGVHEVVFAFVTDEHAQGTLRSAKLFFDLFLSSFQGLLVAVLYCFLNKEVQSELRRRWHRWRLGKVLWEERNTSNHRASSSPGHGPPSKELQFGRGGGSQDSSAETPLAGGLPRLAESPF
Assay [3] has as its target T1, human GLP-1 receptor. Kind of assay: cell-based or functional assay.
In assay [4] the target is T2, human glucagon receptor. Kind of assay: displacement of 125I-glucagon, membranes with human glucagon receptor, SPA. The procedure:
The receptor binding of each compound to the human glucagon receptor was measured in a displacement binding assay. […] Each derivative was added in a series of concentrations to isolated membranes containing the human glucagon receptor and displacement of the labelled ligand is monitored. The receptor binding was reported as the concentration at which half of the labelled ligand is displaced from the receptor, the IC₅₀ value.

Numbered stars: 1 amine (or outer) side, 2 acyl side, 3 side chain; on linkers, the order of the positions; unused ones are H or OH. Square brackets hold non-standard residues; d marks the D form. Side chains are listed from the residue outwards. Ends that are not written are not given here. * marks the point of attachment. C18 diacid = O=C(O)CCCCCCCCCCCCCCCCC(=O)*; γGlu = O=C(O)[C@H](CCC(=O)[*:2])N[*:1]; AEEA = NCCOCCOCC(=O)O; Ac3c = NC1(C(=O)O)CC1; Aib = CC(C)(N)C(=O)O

B1: N^ε16-[(4S)-4-carboxy-4-[[(4S)-4-carboxy-4-[[2-[2-[2-[[(4S)-4-carboxy-4-[[(4S)-4-carboxy-4-(17-carboxyheptadecanoylamino)butanoyl]amino]butanoyl]amino]ethoxy]et … (peptide)
peptide: H[Aib]QGTFTSDLSKYLDK([γGlu-γGlu-AEEA-γGlu-γGlu-C18 diacid])RRAQEFVQWLVKG-NH2
modifications: N-terminus assumed
SMILES: CC(C)C[C@H](NC(=O)[C@H](Cc1ccc(O)cc1)NC(=O)[C@H](CCCCN)NC(=O)[C@H](CO)NC(=O)[C@H](CC(C)C)NC(=O)[C@H](CC(=O)O)NC(=O)[C@H](CO)NC(=O)[C@@H](NC(=O)[C@H](Cc1ccccc1)NC(=O)[C@@H](NC(=O)CNC(=O)[C@H](CCC(N)=O)NC(=O)C(C)(C)NC(=O)[C@@H](N)Cc1c[nH]cn1)[C@@H](C)O)[C@@H](C)O)C(=O)N[C@@H](CC(=O)O)C(=O)N[C@@H](CCCCNC(=O)CC[C@H](NC(=O)CC[C@H](NC(=O)COCCOCCNC(=O)CC[C@H](NC(=O)CC[C@H](NC(=O)CCCCCCCCCCCCCCCCC(=O)O)C(=O)O)C(=O)O)C(=O)O)C(=O)O)C(=O)N[C@@H](CCCNC(=N)N)C(=O)N[C@@H](CCCNC(=N)N)C(=O)N[C@@H](C)C(=O)N[C@@H](CCC(N)=O)C(=O)N[C@@H](CCC(=O)O)C(=O)N[C@@H](Cc1ccccc1)C(=O)N[C@H](C(=O)N[C@@H](CCC(N)=O)C(=O)N[C@@H](Cc1c[nH]c2ccccc12)C(=O)N[C@@H](CC(C)C)C(=O)N[C@H](C(=O)N[C@@H](CCCCN)C(=O)NCC(N)=O)C(C)C)C(C)C
For the molecule B1, the IC50 with human GLP-1 receptor [1] was determined as 1.6 nM; with human glucagon receptor [4] it was 148 nM. For the same molecule, the “EC50 GlucR, CRE luciferase reporter gene assay in BHK cells” value (shortened to “EC50 GlucR”) with human glucagon receptor [2] is 1.33 nM. Besides, the “EC50 GLP-1R, CRE luciferase reporter gene assay in BHK cells” value (“EC50 GLP-1R” below) with human GLP-1 receptor [3] came to 0.0295 nM.

B2: N^ε28-[(4S)-4-carboxy-4-[[(4S)-4-carboxy-4-[[2-[2-[2-[[2-[2-[2-[[(4S)-4-carboxy-4-(17-carboxyheptadecanoylamino)butanoyl]amino]ethoxy]ethoxy]acetyl]amino]ethoxy … (peptide)
peptide: H[Aib]QGTFTSDLSKYLD[Aib]RRAREFVQWLLK([γGlu-γGlu-AEEA-AEEA-γGlu-C18 diacid])T-NH2
modifications: N-terminus assumed
SMILES: CC(C)C[C@H](NC(=O)[C@H](Cc1c[nH]c2ccccc12)NC(=O)[C@H](CCC(N)=O)NC(=O)[C@@H](NC(=O)[C@H](Cc1ccccc1)NC(=O)[C@H](CCC(=O)O)NC(=O)[C@H](CCCNC(=N)N)NC(=O)[C@H](C)NC(=O)[C@H](CCCNC(=N)N)NC(=O)[C@H](CCCNC(=N)N)NC(=O)C(C)(C)NC(=O)[C@H](CC(=O)O)NC(=O)[C@H](CC(C)C)NC(=O)[C@H](Cc1ccc(O)cc1)NC(=O)[C@H](CCCCN)NC(=O)[C@H](CO)NC(=O)[C@H](CC(C)C)NC(=O)[C@H](CC(=O)O)NC(=O)[C@H](CO)NC(=O)[C@@H](NC(=O)[C@H](Cc1ccccc1)NC(=O)[C@@H](NC(=O)CNC(=O)[C@H](CCC(N)=O)NC(=O)C(C)(C)NC(=O)[C@@H](N)Cc1c[nH]cn1)[C@@H](C)O)[C@@H](C)O)C(C)C)C(=O)N[C@@H](CC(C)C)C(=O)N[C@@H](CCCCNC(=O)CC[C@H](NC(=O)CC[C@H](NC(=O)COCCOCCNC(=O)COCCOCCNC(=O)CC[C@H](NC(=O)CCCCCCCCCCCCCCCCC(=O)O)C(=O)O)C(=O)O)C(=O)O)C(=O)N[C@H](C(N)=O)[C@@H](C)O
Turning to B2, the results for the 50% inhibitory concentration (IC50) with human GLP-1 receptor [1] and with human glucagon receptor [4] were 0.7 nM and 1.4 nM, respectively. Besides, the “EC50 GlucR” value in the assay with human glucagon receptor [2] was found to be 0.004 nM. In addition, the “EC50 GLP-1R” value in the assay with human GLP-1 receptor [3] turned out to be 0.006 nM.

B3: N^ε28-[(4S)-4-carboxy-4-[[(4S)-4-carboxy-4-[[2-[2-[2-[[2-[2-[2-[[(4S)-4-carboxy-4-(17-carboxyheptadecanoylamino)butanoyl]amino]ethoxy]ethoxy]acetyl]amino]ethoxy … (peptide)
peptide: H[Ac3c]QGTFTSDLSKYLESRRAREFVQWLLK([γGlu-γGlu-AEEA-AEEA-γGlu-C18 diacid])T-NH2
modifications: N-terminus assumed
SMILES: CC(C)C[C@H](NC(=O)[C@H](Cc1ccc(O)cc1)NC(=O)[C@H](CCCCN)NC(=O)[C@H](CO)NC(=O)[C@H](CC(C)C)NC(=O)[C@H](CC(=O)O)NC(=O)[C@H](CO)NC(=O)[C@@H](NC(=O)[C@H](Cc1ccccc1)NC(=O)[C@@H](NC(=O)CNC(=O)[C@H](CCC(N)=O)NC(=O)C1(NC(=O)[C@@H](N)Cc2c[nH]cn2)CC1)[C@@H](C)O)[C@@H](C)O)C(=O)N[C@@H](CCC(=O)O)C(=O)N[C@@H](CO)C(=O)N[C@@H](CCCNC(=N)N)C(=O)N[C@@H](CCCNC(=N)N)C(=O)N[C@@H](C)C(=O)N[C@@H](CCCNC(=N)N)C(=O)N[C@@H](CCC(=O)O)C(=O)N[C@@H](Cc1ccccc1)C(=O)N[C@H](C(=O)N[C@@H](CCC(N)=O)C(=O)N[C@@H](Cc1c[nH]c2ccccc12)C(=O)N[C@@H](CC(C)C)C(=O)N[C@@H](CC(C)C)C(=O)N[C@@H](CCCCNC(=O)CC[C@H](NC(=O)CC[C@H](NC(=O)COCCOCCNC(=O)COCCOCCNC(=O)CC[C@H](NC(=O)CCCCCCCCCCCCCCCCC(=O)O)C(=O)O)C(=O)O)C(=O)O)C(=O)N[C@H](C(N)=O)[C@@H](C)O)C(C)C
On to B3, for which the IC50 in the assay with human GLP-1 receptor [1] came to 2.2 nM; in the assay with human glucagon receptor [4] it was 26.2 nM. In addition, the “EC50 GlucR” value with human glucagon receptor [2] came to 0.28 nM. The “EC50 GLP-1R” value with human GLP-1 receptor [3] came out at 0.011 nM.

B4: N^ε29-[(4S)-4-carboxy-4-[[(4S)-4-carboxy-4-[[2-[2-[2-[[(4S)-4-carboxy-4-(17-carboxyheptadecanoylamino)butanoyl]amino]ethoxy]ethoxy]acetyl]amino]butanoyl]amino]b … (peptide)
peptide: H[Aib]QGTFTSDLSKYLESRRAREFVQWLLNK([γGlu-γGlu-AEEA-γGlu-C18 diacid])-NH2
modifications: N-terminus assumed
SMILES: CC(C)C[C@H](NC(=O)[C@H](CC(C)C)NC(=O)[C@H](Cc1c[nH]c2ccccc12)NC(=O)[C@H](CCC(N)=O)NC(=O)[C@@H](NC(=O)[C@H](Cc1ccccc1)NC(=O)[C@H](CCC(=O)O)NC(=O)[C@H](CCCNC(=N)N)NC(=O)[C@H](C)NC(=O)[C@H](CCCNC(=N)N)NC(=O)[C@H](CCCNC(=N)N)NC(=O)[C@H](CO)NC(=O)[C@H](CCC(=O)O)NC(=O)[C@H](CC(C)C)NC(=O)[C@H](Cc1ccc(O)cc1)NC(=O)[C@H](CCCCN)NC(=O)[C@H](CO)NC(=O)[C@H](CC(C)C)NC(=O)[C@H](CC(=O)O)NC(=O)[C@H](CO)NC(=O)[C@@H](NC(=O)[C@H](Cc1ccccc1)NC(=O)[C@@H](NC(=O)CNC(=O)[C@H](CCC(N)=O)NC(=O)C(C)(C)NC(=O)[C@@H](N)Cc1c[nH]cn1)[C@@H](C)O)[C@@H](C)O)C(C)C)C(=O)N[C@@H](CC(N)=O)C(=O)N[C@@H](CCCCNC(=O)CC[C@H](NC(=O)CC[C@H](NC(=O)COCCOCCNC(=O)CC[C@H](NC(=O)CCCCCCCCCCCCCCCCC(=O)O)C(=O)O)C(=O)O)C(=O)O)C(N)=O
Take B4: the IC50 was 0.4 nM with human GLP-1 receptor [1] and 37.7 nM with human glucagon receptor [4]. In addition, the “EC50 GlucR” value with human glucagon receptor [2] is 0.136 nM. The “EC50 GLP-1R” value in the assay with human GLP-1 receptor [3] is 0.004 nM.

The IC50 is the midpoint of a concentration-inhibition curve. A high value points to lower potency.

(Values after patent US20150374794A1 (Novo Nordisk, published 2015).)
